PMC5240998, “Identification and Characterization of Single-Chain Antibodies that Specifically Bind GI Noroviruses” (PLoS ONE, 2017)

Target: T1, GI.1 norovirus (Norwalk virus) virus-like particles (Norwalk virus (norovirus GI.1), UniProt Q83884 1-530)
T1 construct: major capsid protein VP1 (ORF2) of Norwalk virus, genotype GI.1, assembled into virus-like particles; also called GI.1 VLPs; GI.1 VLP; copies: 180
T1 sequence: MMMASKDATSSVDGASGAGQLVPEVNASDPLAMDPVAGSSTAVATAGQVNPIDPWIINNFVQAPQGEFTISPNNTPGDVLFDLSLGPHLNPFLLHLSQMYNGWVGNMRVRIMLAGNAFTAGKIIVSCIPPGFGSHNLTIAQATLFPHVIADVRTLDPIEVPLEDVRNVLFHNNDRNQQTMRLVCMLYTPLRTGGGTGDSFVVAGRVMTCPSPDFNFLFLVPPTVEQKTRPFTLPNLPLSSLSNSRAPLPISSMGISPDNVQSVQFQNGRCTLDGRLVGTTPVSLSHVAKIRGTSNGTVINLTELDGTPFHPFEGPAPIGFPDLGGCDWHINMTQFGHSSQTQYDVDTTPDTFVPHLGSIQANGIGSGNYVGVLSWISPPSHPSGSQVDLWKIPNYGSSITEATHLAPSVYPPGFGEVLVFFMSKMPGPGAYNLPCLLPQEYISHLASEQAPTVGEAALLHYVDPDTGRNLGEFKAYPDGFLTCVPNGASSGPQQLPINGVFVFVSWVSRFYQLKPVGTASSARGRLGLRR
Experiment: ELISA; phage ELISA: VLPs, P-domain, S-domain (CT303) or BSA coated directly on the plate (VLPs 5 ug/mL in PBS); 5 × 10^10 cfu phage per well in 1% MPBS, 2 h RT; detected with anti-M13 HRP; signal as ratio to M13KE phage
Settings: both partners purified

B1: NV-N-R5-1 phage-displayed 12-mer peptide (peptide)
peptide: LPSWYLAYQKII
notes: source: first reported by Rogers et al [18]
binding result: binds
